# Experimental data published in paper doi:10.1101/2020.09.29.317909.
# Molecular target: MtMce4A_(39-140) (Mycobacterium tuberculosis)
# Assay: SEC-MALS
substance,measurement,value
MtMce4A_(39-140) (domain or fragment),stoichiometry N,2
